Test [1] deals with KEAP1 (wild-type full-length), His-tagged (human) (UniProt Q14145). Put plainly: AlphaScreen; 38.4 nM FLAG-NRF2, 150 nM His-KEAP1; Repeat 2 (same value as in Table 23). For orientation: Bead proximity is the source of the signal in Alpha formats.
For test [2] the target is unchanged. Briefly: AlphaScreen; 38.4 nM FLAG-NRF2, 150 nM His-KEAP1; Repeat 1 (same value as in Table 23).
For test [3] the target is unchanged. Briefly: AlphaScreen; 19.2 nM FLAG-NRF2, 150 nM His-KEAP1; Repeat 2 (same value as in Table 23).
The target is the same in test [4]. Put plainly: AlphaScreen; 9.6 nM FLAG-NRF2, 150 nM His-KEAP1 (same value as in Table 23).
The target is the same in test [5]. Briefly: AlphaScreen; mean over 9.6, 19.2 and 38.4 nM NRF2; 150 nM His-KEAP1; against wild-type NRF2 isoform 2.
Test [6] has the same target. Put plainly: AlphaScreen; standard deviation of three conditions; against wild-type NRF2 isoform 2.
Test [7] has the same target. Briefly: AlphaScreen, all variants on one plate; average of three conditions ± standard deviation, KEAP1 150 nM; relative to NRF2 (WT) isoform 2.
For test [8] the target is unchanged. Put plainly: AlphaScreen, all variants on one plate; optimal condition (19.2 nM NRF2), KEAP1 150 nM; relative to NRF2 (WT) isoform 2.
Test [9] shares this target. Briefly: AlphaScreen; 9.6 nM FLAG-NRF2, 150 nM His-KEAP1; against wild-type NRF2 isoform 2 = 100%.
Test [10] has the same target. Put plainly: AlphaScreen; 9.6 nM FLAG-NRF2, 150 nM His-KEAP1; Repeat 1 (same value as in Table 23).
Test [11] shares this target. Briefly: AlphaScreen; 38.4 nM FLAG-NRF2, 150 nM His-KEAP1; against wild-type NRF2 isoform 2 = 100%.
Test [12] has the same target. Put plainly: AlphaScreen; over 9.6, 19.2 and 38.4 nM NRF2; 150 nM His-KEAP1.
For test [13] the target is unchanged. Briefly: AlphaScreen; mean over 9.6, 19.2 and 38.4 nM NRF2; 150 nM His-KEAP1; against wild-type NRF2 isoform 2 = 100%.
The target is the same in test [14]. Briefly: AlphaScreen; 307.2 nM FLAG-NRF2, 150 nM His-KEAP1; signal against NRF2 only.
Test [15] has the same target. Briefly: AlphaScreen, all variants on one plate; lower condition (9.6 nM NRF2), KEAP1 150 nM; relative to NRF2 (WT) isoform 2.
For test [16] the target is unchanged. Put plainly: AlphaScreen; 19.2 nM FLAG-NRF2, 150 nM His-KEAP1 (same value as in Table 23).
The target is the same in test [17]. Briefly: AlphaScreen; 19.2 nM FLAG-NRF2, 150 nM His-KEAP1 (same value as in Table 22).
The target is the same in test [18]. Put plainly: AlphaScreen; 38.4 nM FLAG-NRF2, 150 nM His-KEAP1; Repeat 1 (same value as in Table 22).
The target is the same in test [19]. Put plainly: AlphaScreen; 38.4 nM FLAG-NRF2, 150 nM His-KEAP1; Repeat 2 (same value as in Table 22).
The target is the same in test [20]. Briefly: AlphaScreen; 9.6 nM FLAG-NRF2, 150 nM His-KEAP1; Repeat 2 (same value as in Table 22).
Test [21] has the same target. Put plainly: AlphaScreen; 9.6 nM FLAG-NRF2, 150 nM His-KEAP1 (same value as in Table 22).
For test [22] the target is unchanged. Put plainly: AlphaScreen; 9.6 nM FLAG-NRF2, 150 nM His-KEAP1; Repeat 1 (same value as in Table 22).
For test [23] the target is unchanged. Briefly: AlphaScreen, all variants on one plate; lower condition (9.6 nM NRF2), KEAP1 150 nM; the reference itself.
Test [24] has the same target. Put plainly: AlphaScreen, all variants on one plate; average of three conditions, KEAP1 150 nM; the reference itself.
Test [25] has the same target. Briefly: AlphaScreen; 19.2 nM FLAG-NRF2, 150 nM His-KEAP1; Repeat 1 (same value as in Table 22).
Test [26] has the same target. Put plainly: AlphaScreen, all variants on one plate; optimal condition (19.2 nM NRF2), KEAP1 150 nM; the reference itself.
The target is the same in test [27]. Put plainly: AlphaScreen; 19.2 nM FLAG-NRF2, 150 nM His-KEAP1; Repeat 2 (same value as in Table 22).

We go through two substances from US20250352667A1.

Sequence of KEAP1 (wild-type full-length), His-tagged (human) (Q14145 2-624 limits assumed, form in doubt): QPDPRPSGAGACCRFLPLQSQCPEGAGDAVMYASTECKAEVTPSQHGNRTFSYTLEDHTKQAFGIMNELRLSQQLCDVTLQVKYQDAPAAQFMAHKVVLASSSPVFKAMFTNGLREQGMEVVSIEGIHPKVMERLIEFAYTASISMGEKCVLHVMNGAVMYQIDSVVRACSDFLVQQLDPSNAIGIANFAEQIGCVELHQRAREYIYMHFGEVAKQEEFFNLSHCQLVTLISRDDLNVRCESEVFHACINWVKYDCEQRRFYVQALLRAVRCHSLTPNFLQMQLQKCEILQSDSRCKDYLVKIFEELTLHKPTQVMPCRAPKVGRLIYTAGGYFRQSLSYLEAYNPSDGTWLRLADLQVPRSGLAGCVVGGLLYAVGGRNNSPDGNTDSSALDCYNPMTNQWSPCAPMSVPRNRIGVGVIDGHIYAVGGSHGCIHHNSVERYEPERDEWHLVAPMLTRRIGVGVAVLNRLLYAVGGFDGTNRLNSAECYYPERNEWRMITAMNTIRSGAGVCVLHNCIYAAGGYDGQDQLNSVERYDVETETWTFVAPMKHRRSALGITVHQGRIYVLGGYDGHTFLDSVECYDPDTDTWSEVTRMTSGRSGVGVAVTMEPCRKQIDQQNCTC

For “NRF2 isoform 2 (E63G/E66G full-length), FLAG-tagged”, the A-counts in test [1] turned out to be 1960 A-counts; in [2], 2120 A-counts; in test [3], 1950 A-counts; in test [10], 1670 A-counts. The values for the S/N in test [4], in test [14] and in test [16] were 1.8, 1.1 and 1.8, respectively. In test [5], the Avg. Reduction in Binding was 69.1%. The substance also showed a Reported Value (standard deviation of reduction in binding) in [6] of 10.2%. Besides, the % Disruption in Binding (Reported Values) in [7] came out at 61.7%. Also, the % Disruption in Binding in test [8] amounted to 59.7%; in test [15], 63.4%. In addition, the Binding Percentage (%) in test [9] was found to be 35.7%; in test [11], 37.8%. The substance also displayed a Standard Deviation (of binding percentage) in [12] of 10.2%. Further, the Average Binding in [13] was determined as 30.9%.

Turning to “NRF2 isoform 2 (wild-type full-length), FLAG-tagged”, the S/N turned out to be 4.2 in test [17], 3.7 in test [21] and 2.2 in [14]. Besides, the A-counts came out at 3470 A-counts in test [18]; 3460 A-counts in [19]; 2590 A-counts in test [20]; 2310 A-counts in [22]; 3480 A-counts in test [25]; 3260 A-counts in test [27]. The % Disruption in Binding in test [23] and in test [26] was 0% each time. In [24], this substance gave a % Disruption in Binding (Reported Values) of 0%.
